These results are taken from PMC4240730.

One test has as its target basigin (Homo sapiens) (UniProt P35613). Particulars: cited from earlier work.
Test [1] has as its target basigin (immunoglobulin domains 1 and 2 of the short isoform, residues 22-205) (UniProt P35613). The test can be described thus: AUC.
For test [2] the target is unchanged. The test can be described thus: SPR.

For the substance PfRH5 (from UniProt Q8IFM5), the Kd with basigin (Homo sapiens) is 1100 nM.

Consider “PfRH5ΔN (residues K140-Q526) (from UniProt Q8IFM5 140-526) (domain or fragment)”, for which the stoichiometry N in test [1] was 1.

As to “PfRH5ΔNL (from UniProt Q8IFM5 140-526) (domain or fragment)”, in test [2], the Kd was found to be 1300 nM.
